Test results: publication PMC2175255

Biological target: erbB2 receptor tyrosine kinase (rat (endogenous in primary Schwann cells)) (UniProt P06494)
Test: co-IP

Chain of UniProt P06494 (P06494 23-1257): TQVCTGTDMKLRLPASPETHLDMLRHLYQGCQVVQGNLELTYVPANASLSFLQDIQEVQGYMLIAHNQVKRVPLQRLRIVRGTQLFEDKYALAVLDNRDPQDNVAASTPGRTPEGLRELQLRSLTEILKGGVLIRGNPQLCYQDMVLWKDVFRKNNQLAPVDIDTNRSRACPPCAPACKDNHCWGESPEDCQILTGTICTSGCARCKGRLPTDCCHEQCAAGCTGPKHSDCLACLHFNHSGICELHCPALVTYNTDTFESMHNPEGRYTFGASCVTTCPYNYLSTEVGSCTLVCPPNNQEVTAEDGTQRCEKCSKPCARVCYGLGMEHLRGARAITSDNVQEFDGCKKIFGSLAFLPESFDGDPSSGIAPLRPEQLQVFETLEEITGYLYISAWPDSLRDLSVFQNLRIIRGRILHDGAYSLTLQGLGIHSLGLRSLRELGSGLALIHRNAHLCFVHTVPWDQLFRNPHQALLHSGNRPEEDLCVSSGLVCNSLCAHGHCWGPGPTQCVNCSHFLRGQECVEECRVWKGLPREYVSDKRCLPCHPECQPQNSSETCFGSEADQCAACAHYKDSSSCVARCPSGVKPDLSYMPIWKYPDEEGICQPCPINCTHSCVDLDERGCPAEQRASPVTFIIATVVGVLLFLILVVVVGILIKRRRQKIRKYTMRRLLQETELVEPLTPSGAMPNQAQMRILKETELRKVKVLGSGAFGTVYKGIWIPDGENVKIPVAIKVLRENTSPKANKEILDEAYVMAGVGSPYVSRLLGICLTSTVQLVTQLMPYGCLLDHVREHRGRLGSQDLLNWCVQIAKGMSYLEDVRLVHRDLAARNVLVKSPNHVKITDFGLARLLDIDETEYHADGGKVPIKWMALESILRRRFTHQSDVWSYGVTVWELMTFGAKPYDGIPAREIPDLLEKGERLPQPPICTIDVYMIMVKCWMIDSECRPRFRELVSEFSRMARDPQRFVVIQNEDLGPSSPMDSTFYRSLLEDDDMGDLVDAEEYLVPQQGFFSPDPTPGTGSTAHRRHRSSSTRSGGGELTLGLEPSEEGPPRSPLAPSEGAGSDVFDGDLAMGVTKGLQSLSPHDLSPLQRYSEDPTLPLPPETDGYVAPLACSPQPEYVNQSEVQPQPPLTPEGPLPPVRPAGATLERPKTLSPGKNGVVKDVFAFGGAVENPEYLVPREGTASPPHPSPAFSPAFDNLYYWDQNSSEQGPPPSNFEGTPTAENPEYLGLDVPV

CD44 transmembrane glycoprotein (from UniProt P26051 22-503) (natural protein)
fold CD44 co-immunoprecipitated with rh-GGF2 against untreated cells: 2 fold
